Measured values published in the supplement of paper PMC10126150.
± gives the standard deviation of the averaged measurements.

system: ATP; assay: switch fluorescence ratio, 500 uM ATP over buffer (Cy3 cluster intensity, sum of 5 cycles each) (fold (ratio)); higher = stronger signal-on switching upon ATP binding; sequences stand for … in TCGTCGGCAGCGTCAGATGTGTATAAGAGACAGTTTTTTTTTTTTTTTTTTTTTTTTT…TC; settings: aptamer strand: ATP DNA aptamer (quencher-CACCTGGGGGAGTATTGCGGAGGAAGG + anchor), 100 nM annealed; ATP concentration: 500 uM
Summary of the method: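 For every switch-domain sequence, the fluorescence ratio is the mean of per-cluster values, each being summed target-cycle Cy3 intensity over summed buffer-cycle Cy3 intensity. Clusters outside 100-1000 RFU were excluded. On a modified Illumina MiSeq flow-cell, the Cy3-labelled switching-strand clusters were annealed to 100 nM quencher-labelled ATP aptamer, imaged in selection buffer and then after 15 min with 500 uM ATP at 22 °C. Five such cycles were run, with NaOH stripping and re-annealing between them.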
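Also: ATP exposure 15 min at 22 °C before imaging.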

Sequence | switch fluorescence ratio
CGGTAAGGGG | 0.987 ± 0.01
CGGTAATGGG | 0.943 ± 0.031
CGGTACGCTG | 1.01 ± 0.017
CGGTACGTTT | 1.007 ± 0.0015
CGGTAGGATC | 0.995 ± 0.03
CGGTAGGGGT | 0.969 ± 0.028
CGGTAGGGTA | 0.991 ± 0.026
CGGTAGTATC | 0.982 ± 0.049
CGGTAGTCGA | 1.02 ± 0.052
CGGTATCCGT | 0.978 ± 0.062
CGGTATCTGA | 0.9888 ± 0.006
CGGTATTGGT | 0.976 ± 0.031
CGGTATTTGC | 0.979 ± 0.0099
CGGTATTTTT | 1.02 ± 0.028
CGGTCAACG | 0.993 ± 0.022
CGGTCACGCG | 0.972 ± 0.039
CGGTCAGGGA | 1.01 ± 0.037
CGGTCATTCA | 1.02 ± 0.055
CGGTCCGGG | 1.05 ± 0.061
CGGTCCGGTT | 0.9862 ± 0.0018
CGGTCGCAGT | 1.02 ± 0.055
CGGTCGGGAA | 1.005 ± 0.01
CGGTCGGGAT | 0.9606 ± 0.0031
CGGTCGGGCG | 1.03 ± 0.023
CGGTCTATTG | 1.002 ± 0.0098

Sequence | switch fluorescence ratio
CGGTCTCATC | 1.02 ± 0.014
CGGTGAAGTT | 0.966 ± 0.01
CGGTGCATGG | 0.991 ± 0.1
CGGTGCCTTG | 0.978 ± 0.026
CGGTGCGATT | 1.03 ± 0.019
CGGTGCTACT | 1.03 ± 0.063
CGGTGCTGCG | 1.065 ± 0.0039
CGGTGGCTCC | 1.026 ± 0.0025
CGGTGGGAGA | 1.023 ± 0.0078
CGGTGGGAGT | 0.973 ± 0.03
CGGTGGGGGA | 0.986 ± 0.025
CGGTGGGGGC | 0.9806 ± 0.0057
CGGTGGTGAG | 1.012 ± 0.0049
CGGTGGTTGT | 0.9948 ± 0.0052
CGGTGTACGC | 1.061 ± 0.0034
CGGTGTATCG | 0.983 ± 0.027
CGGTGTGTCT | 1.02 ± 0.019
CGGTGTTGTT | 1.018 ± 0.0014
CGGTGTTTGG | 0.972 ± 0.015
CGGTTAGACT | 0.975 ± 0.05
CGGTTAGTGT | 0.971 ± 0.035
CGGTTATATG | 1.02 ± 0.015
CGGTTCGCGT | 0.972 ± 0.031
CGGTTCTCTC | 1.02 ± 0.013
CGGTTGACTT | 0.992 ± 0.057

Sequence | switch fluorescence ratio
CGGTTGATGC | 0.997 ± 0.059
CGGTTGGTGA | 0.974 ± 0.035
CGGTTGTACC | 1.007 ± 0.0079
CGGTTGTGAA | 0.963 ± 0.018
CGGTTGTGGG | 0.996 ± 0.018
CGGTTTCTGG | 0.9856 ± 0.0053
CGGTTTCTTT | 0.967 ± 0.053
CGGTTTGACT | 0.9563 ± 0.0063
CGGTTTGCGG | 0.982 ± 0.017
CGGTTTGGAT | 1.01 ± 0.035
CGGTTTGGTG | 1.01 ± 0.029
CGGTTTTAAG | 1.02 ± 0.018
CGGTTTTGTA | 0.971 ± 0.028
CGGTTTTGTT | 1.02 ± 0.035
CGTAAAAGAT | 1.04 ± 0.06
CGTAAAATCG | 0.995 ± 0.042
CGTAAATTAT | 0.993 ± 0.029
CGTAAATTGG | 1.02 ± 0.013
CGTAATAAGG | 0.98799 ± 0.00022
CGTAATGAAG | 1.004 ± 0.0064
CGTAATGCCT | 1.03 ± 0.098
CGTACATGT | 1.02 ± 0.024
CGTACGTCAT | 1.08 ± 0.04
CGTACGTTCT | 1.026 ± 0.0096
CGTACTTCCG | 1.019 ± 0.0053

Sequence | switch fluorescence ratio
CGTACTTGGG | 0.982 ± 0.011
CGTAGAATGT | 0.992 ± 0.022
CGTAGAGAGG | 0.998 ± 0.0029
CGTAGCTTTT | 1.82 ± 0.67
CGTAGGCGTA | 0.98 ± 0.03
CGTAGGGGCT | 1 ± 0.011
CGTAGTTCTT | 1.01 ± 0.03
CGTAGTTTCG | 1.013 ± 0.008
CGTAGTTTTA | 1.044 ± 0.0041
CGTATAGGAT | 1.01 ± 0.036
CGTATATAGT | 1.01 ± 0.014
CGTATATGTG | 0.989 ± 0.035
CGTATCAAAA | 1.02 ± 0.019
CGTATGAAAA | 1 ± 0.014
CGTATGAAGA | 1.02 ± 0.016
CGTATGCAGT | 1.01 ± 0.011
CGTATGCTGG | 1.02 ± 0.019
CGTATGGGAA | 1.026 ± 0.0082
CGTATTAGGT | 0.9553 ± 0.0086
CGTATTATTA | 0.988 ± 0.03
CGTATTCGCT | 0.993 ± 0.021
CGTATTTCAG | 0.983 ± 0.011
CGTCAACTGC | 1.17 ± 0.039
CGTCACCGGG | 1.11 ± 0.032
CGTCACTAGC | 1.04 ± 0.022

Sequence | switch fluorescence ratio
CGTCAGGGGG | 0.972 ± 0.027
CGTCATGGGT | 1 ± 0.035
CGTCATTTTC | 1.05 ± 0.1
CGTCCATTGA | 1.03 ± 0.019
CGTCCGGATG | 1.19 ± 0.13
CGTCCGGCAG | 1.67 ± 0.083
CGTCCTATTT | 1.01 ± 0.029
CGTCCTCATG | 1.302 ± 0.0067
CGTCGAGTGC | 0.962 ± 0.011
CGTCGCCGGT | 1 ± 0.0078
CGTCGGAGGG | 0.977 ± 0.013
CGTCGGAGTG | 1.01 ± 0.022
CGTCGGGAAT | 1.35 ± 0.051
CGTCGGGGCA | 0.964 ± 0.074
CGTCGTAAAA | 0.999 ± 0.036
CGTCTAAGGG | 1.06 ± 0.13
CGTCTGGGAT | 1.01 ± 0.037
CGTCTGTCTG | 0.976 ± 0.033
CGTCTTAAAG | 1 ± 0.036
CGTCTTAGTT | 0.993 ± 0.015
CGTGAAAATC | 0.9987 ± 0.0075
CGTGACAGAG | 0.992 ± 0.02
CGTGAGAAGT | 0.9923 ± 0.0041
CGTGAGAATG | 0.997 ± 0.026
CGTGAGGGGG | 1.01 ± 0.012

Sequence | switch fluorescence ratio
CGTGAGGGGT | 0.994 ± 0.026
CGTGAGTGGT | 1.018 ± 0.0037
CGTGAGTTTG | 0.9888 ± 0.0082
CGTGATAAAG | 0.9911 ± 0.0089
CGTGATATTG | 1.01 ± 0.017
CGTGATTAAG | 1.09 ± 0.17
CGTGATTTGA | 0.986 ± 0.014
CGTGCACATT | 0.983 ± 0.012
CGTGCATCGA | 1.0092 ± 0.00045
CGTGCCAGCA | 0.983 ± 0.045
CGTGCCAGCT | 0.9518 ± 0.00082
CGTGCCGGGG | 0.968 ± 0.053
CGTGCGGGGA | 1.02 ± 0.032
CGTGCGGGTT | 0.993 ± 0.047
CGTGCTAGTA | 1.02 ± 0.058
CGTGCTGTT | 1.01 ± 0.027
CGTGGAGGGT | 0.9966 ± 0.0042
CGTGGATGTG | 0.9885 ± 0.0027
CGTGGATGTT | 0.9831 ± 0.0034
CGTGGCAAAG | 1.02 ± 0.015
CGTGGCAGCA | 1.0326 ± 3.9e-05
CGTGGCGCGT | 1.05 ± 0.11
CGTGGCTATG | 0.959 ± 0.019
CGTGGCTGGT | 0.996 ± 0.013
CGTGGGGATA | 1.031 ± 0.009

Sequence | switch fluorescence ratio
CGTGGGGGAC | 0.997 ± 0.033
CGTGGGGGCA | 0.9538 ± 0.0076
CGTGGGGTGT | 1.01 ± 0.039
CGTGGGTCCA | 1.024 ± 0.01
CGTGGGTGTT | 0.946 ± 0.015
CGTGGTATGG | 0.9976 ± 0.003
CGTGGTTTTT | 1.01 ± 0.023
CGTGTACATC | 1.01 ± 0.011
CGTGTACGGA | 1.022 ± 0.0021
CGTGTATTTG | 0.989 ± 0.011
CGTGTCAGCA | 0.9937 ± 0.0055
CGTGTCGCCT | 1.01 ± 0.015
CGTGTCGCGC | 1.002 ± 0.01
CGTGTGAGAC | 1.02 ± 0.014
CGTGTGAGGG | 1.01 ± 0.015
CGTGTGAGGT | 0.9972 ± 0.008
CGTGTGGCGA | 1.06 ± 0.015
CGTGTGGGGG | 1.02 ± 0.031
CGTGTGGTAG | 0.992 ± 0.044
CGTGTGTGCA | 1.004 ± 0.0024
CGTGTGTTTT | 1 ± 0.0068
CGTGTTCGCT | 0.9921 ± 0.0016
CGTGTTGAGG | 0.991 ± 0.023
CGTGTTGGGG | 0.971 ± 0.039
CGTGTTTGTT | 0.988 ± 0.022

Sequence | switch fluorescence ratio
CGTTAAACTT | 1.01 ± 0.012
CGTTAAGGGA | 0.978 ± 0.021
CGTTACGCTG | 0.979 ± 0.026
CGTTACTATA | 1.08 ± 0.011
CGTTAGAGAG | 0.99 ± 0.03
CGTTAGGGAG | 0.95456 ± 0.00035
CGTTAGGGGA | 0.999 ± 0.011
CGTTATAAAT | 0.996 ± 0.029
CGTTATATCC | 1.06 ± 0.021
CGTTATGGGA | 0.976 ± 0.022
CGTTCAATGT | 1.026 ± 0.0085
CGTTCAGCGG | 0.996 ± 0.023
CGTTCATATG | 0.963 ± 0.023
CGTTCCGGGG | 1.03 ± 0.036
CGTTCCGGTC | 1.06 ± 0.054
CGTTCGTGTG | 1.017 ± 0.0044
CGTTCTATTG | 1.02 ± 0.086
CGTTGAGGGT | 0.99 ± 0.014
CGTTGATTAG | 0.984 ± 0.014
CGTTGCATGC | 1.39 ± 0.099
CGTTGCCGCT | 0.934 ± 0.054
CGTTGCGCGT | 0.993 ± 0.037
CGTTGCGGTA | 1.04 ± 0.026
CGTTGCTTTT | 1.01 ± 0.026
CGTTGGCGAG | 1.01 ± 0.031
